From patent publication US20180273639A1 (YEDA RESEARCH AND DEVELOPMENT, published 2018)
Positions count from the first letter of the chain named. Names and notes keep the numbering of the source. Each block holds one binder with its values, some of them ahead of it.

Key:
MmQSOX1 A116P = MmQSOX1 A116P (Mus musculus); assay: cell-based or functional assay
[1] = target: MmQSOX1 A116P and TLPG(138-141)VFPV (Mus musculus); assay: cell-based or functional assay
[2] = target: MmQSOX1 TLPG(138-141)VFPV (Mus musculus); assay: cell-based or functional assay
[3] = target: T1, Homo sapiens QSOX1 (recombinant HsQSOX1) (Homo sapiens, UniProt O00391 33-546, limits assumed); assay: cell-based or functional assay
T1 sequence: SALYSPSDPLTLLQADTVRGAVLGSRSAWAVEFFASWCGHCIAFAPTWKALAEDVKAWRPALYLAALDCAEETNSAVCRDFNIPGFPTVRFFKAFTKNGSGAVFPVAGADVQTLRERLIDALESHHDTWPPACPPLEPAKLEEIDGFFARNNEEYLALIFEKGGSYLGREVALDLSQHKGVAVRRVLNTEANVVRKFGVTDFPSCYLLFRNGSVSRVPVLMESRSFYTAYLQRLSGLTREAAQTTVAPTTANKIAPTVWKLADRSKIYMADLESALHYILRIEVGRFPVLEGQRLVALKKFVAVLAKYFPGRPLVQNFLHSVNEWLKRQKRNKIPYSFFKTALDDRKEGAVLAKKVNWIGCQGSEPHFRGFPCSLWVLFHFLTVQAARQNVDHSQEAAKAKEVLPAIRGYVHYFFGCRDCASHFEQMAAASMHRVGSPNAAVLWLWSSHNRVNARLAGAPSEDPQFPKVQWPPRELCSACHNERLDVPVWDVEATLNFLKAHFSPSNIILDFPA

biotinylated MmQSOX1Trx = target: T2, biotinylated MmQSOX1Trx (Mus musculus, UniProt Q8BND5 36-275, Biotin on the lysine of the C-terminal AviTag (tag not in the letters); in early screening rounds pre-loaded with streptavidin-APC); assay: yeast-surface display flow cytometry
T2 construct: Used for yeast-surface display; in the first screening rounds pre-loaded with streptavidin-APC in a 1:4 molar ratio; also called MmQSOX1Trx with AviTag; not shown: purification tag
T2 sequence: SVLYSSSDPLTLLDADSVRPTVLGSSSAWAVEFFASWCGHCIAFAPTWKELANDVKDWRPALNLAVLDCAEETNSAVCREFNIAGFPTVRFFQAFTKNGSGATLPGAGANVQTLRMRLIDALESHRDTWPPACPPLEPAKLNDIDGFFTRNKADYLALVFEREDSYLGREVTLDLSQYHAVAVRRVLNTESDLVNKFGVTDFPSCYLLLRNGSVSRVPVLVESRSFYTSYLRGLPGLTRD

MmQSOX1Trx [4] = target: T3, MmQSOX1Trx (Mus musculus, UniProt Q8BND5 36-275); assay: analytical size-exclusion chromatography
T3 construct: Residues 36-275 of Mus musculus QSOX1, made in E. coli, purified on Ni-NTA; also called MmQSOX1Trv; Trx module of MmQSOX1
T3 sequence: T2 sequence
Description: (§1) MsQSOX1-antibody complexes were injected after a 30 min co-incubation at 4° C. Elution of proteins was monitored by absorbance at 280 nm.

MmQSOX1Erv = target: T4, MmQSOX1Erv (Mus musculus, UniProt Q8BND5 289-550, FAD cofactor bound); assay: analytical size-exclusion chromatography
T4 construct: also called MmQSOX1 Erv module
T4 sequence: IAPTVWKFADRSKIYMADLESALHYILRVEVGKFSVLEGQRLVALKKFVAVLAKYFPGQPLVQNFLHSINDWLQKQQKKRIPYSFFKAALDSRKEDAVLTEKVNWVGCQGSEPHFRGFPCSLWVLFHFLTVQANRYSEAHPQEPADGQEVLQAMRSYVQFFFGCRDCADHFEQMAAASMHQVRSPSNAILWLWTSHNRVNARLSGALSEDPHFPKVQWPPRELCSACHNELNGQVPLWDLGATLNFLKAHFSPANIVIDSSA
Description: as §1

MmQSOX1Trx [5] = target: T3, MmQSOX1Trx; assay: complex purified by size-exclusion chromatography
Description: A stop codon was inserted after the CH1 segment of the heavy chain, to obtain a coding sequence for a Fab fragment. […] Prior to crystallization the complexes were concentrated to 10 mg/ml.

B1: MAb492.1 (antibody, V domains shown)
VH: QVQLKQSGPGLVAPSQSLSITCTVSGFSLTGYGVNWVRQSPGKGLEWLGMIWGDGRTDYKSALKSRLSITKDNSKSQVFLKMNSLQTDDTARYFCASDYYGSGSFAYWGQGTLVTVSA
VL: DVVMTQTHKFMSTSVGDRVSITCKASQDVSTAVAWYQQKSGQSPKLLIHSASYRYTGVPDRFTGSGSGTDFTFTISSVQAEDLAVYYCQQHYSIPLTFGAGTKLELK
- percent inhibition of enzyme activity, oxygen consumption assay (MmQSOX1 A116P): ~60%
- percent inhibition of enzyme activity, oxygen consumption assay [1]: 100%
- percent inhibition of enzyme activity, oxygen consumption assay [2]: ~50%
- percent inhibition of enzyme activity, oxygen consumption assay [3]: 100%

B2: scFv492.1 S93A Y99S Y100K G101D S102P D58E T31G H49S S50M Y52Q (scFv, V domains shown)
VH: B1 VH with D58E, Y99S, Y100K, G101D, S102P
VL: B1 VL with T31G, H49S, S50M, Y53Q, S93A
notes: also called template d; not shown: scFv linker and domain order; yeast display fusion partner and cMyc tag (pETCON)
- binding result (biotinylated MmQSOX1Trx): binds

Next, values leading:

- binding result (MmQSOX1Trx [4]): binds
- binding result (MmQSOX1Erv): no binding
B3: MAb316.1 (antibody, V domains shown)
VH: QVQLQQSGPELVKPGASVKISCKASGYSFTSYYIHWVKQRPGQGLEWIGWIYPGSYNTEYSEKFKGKATLTADTSSSTAYMQLSSLTSEDSAVYYCARSEDWFAYWGQGTLVTVS
VL: QIVLTQSPAIMSASPGEKVTISCSASSSVSYMYWYHQKPGSSPKPWIYRTSNLASGVPARFSGSGSGTSYSLTISSMEAEDAATYYCQQYHSYPLTFGAGTKLELK
notes: Hybridoma antibody from QSOX1 knock-out mice immunised with MmQSOX1

- binding result (MmQSOX1Trx [5]): binds
B4: Fab316.1 (Fab, V domains shown)
VH: B3 VH
VL: B3 VL
notes: also called Fab fragment of MAb316.1
